Measurements as given in PMC8322138, “BRCA2 binding through a cryptic repeated motif to HSF2BP oligomers does not impact meiotic recombination” (Nature Communications, 2021).
Changes are numbered by the printed parent chain. In names and notes the source's numbering stands.

What was measured:
HSF2BP FL = molecular target: T1, HSF2BP FL (Homo sapiens, UniProt O75031); assay: ITC of BRCA2 fragments with full-length HSF2BP; type: binding
T1 construct: Human full-length HSF2BP WT and R200T were expressed; 6xHis-TEV (N, cleaved yes); made in house; host or cells: E. coli BL21 DE3 Rosetta2
T1 sequence (O75031 1-334): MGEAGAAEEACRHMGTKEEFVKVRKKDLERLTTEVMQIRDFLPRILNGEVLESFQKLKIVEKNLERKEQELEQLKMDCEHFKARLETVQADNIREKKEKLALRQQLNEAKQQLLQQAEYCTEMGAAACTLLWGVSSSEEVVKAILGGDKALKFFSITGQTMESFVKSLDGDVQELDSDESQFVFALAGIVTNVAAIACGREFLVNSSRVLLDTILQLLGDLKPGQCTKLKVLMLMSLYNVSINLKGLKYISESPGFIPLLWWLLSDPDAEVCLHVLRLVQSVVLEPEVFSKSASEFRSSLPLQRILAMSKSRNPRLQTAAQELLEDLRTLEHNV
Description: (§1) Human full-length HSF2BP WT and R200T were expressed using a pETM11 (6xHis-TEV) expression vector in E. coli BL21 DE3 Rosetta2 cells, and purified as previously reported (Brandsma et al., Cell Rep 2019). The armadillo domain of HSF2BP, from aa 122 to aa 334, which we will further name ARM, was similarly expressed using a pETM11 (6xHis-TEV) expression vector in BL21 DE3 Rosetta2 cells and purified as full-length HSF2BP.
(§2) Human BRCA2 fragment F0 was expressed using a pET-22b expression vector as a fusion protein comprising BRCA2 from aa 2213 to aa 2342 (including mutation C2332T to avoid oxidation problems), a TEV site, a GB1 and 6xHis tag, in E. coli BL21 DE3 Star cells. The BRCA2 gene was optimized for expression in bacteria and synthesized by Genscript. In addition, smaller BRCA2 fragments were produced using the same strategy: FNMR and F15X corresponding to aa 2252 to aa 2342 and aa 2291 to aa 2343, respectively. The smallest fragment F15X∆12, from aa 2312 to aa 2342, was synthesized by Genecust.
(§3) ITC experiments were performed using a high-precision VP-ITC instrument (GE Healthcare) at 293 K. To characterize the interactions between HSF2BP and BRCA2 fragments (WT, variants), the proteins were dialyzed against 25 mM Tris pH 7.5, 250 mM NaCl, 5 mM β-mercaptoethanol. The HSF2BP (or ARM domain) was in the sample cell at 10–20 μM and was titrated by BRCA2 fragments at 40–100 μM, using 10 μL injections with 210 s intervals between each injection. The first 2 μL injection was ignored in the final data analysis. The integration of the peaks corresponding to each injection. the correction for the baseline and the fit were performed using the Origin 7.0 software provided by the manufacturer, to obtain the stoichiometry (N), dissociation constant (Kd), and enthalpy of complex formation (ΔH) for each interaction. Two replicates were performed for each experiment.

ARM domain of HSF2BP [1] = molecular target: T2, ARM domain of HSF2BP (Homo sapiens, UniProt O75031); assay: ITC of BRCA2 fragments with HSF2BP armadillo domain; type: binding; details: for ΔG / −TΔS / ΔH (±error): 293 K
T2 construct: The armadillo domain of HSF2BP, from aa 122 to aa 334; 6xHis-TEV (N, cleaved yes); made in house; host or cells: E. coli BL21 DE3 Rosetta2
T2 sequence (O75031 122-334): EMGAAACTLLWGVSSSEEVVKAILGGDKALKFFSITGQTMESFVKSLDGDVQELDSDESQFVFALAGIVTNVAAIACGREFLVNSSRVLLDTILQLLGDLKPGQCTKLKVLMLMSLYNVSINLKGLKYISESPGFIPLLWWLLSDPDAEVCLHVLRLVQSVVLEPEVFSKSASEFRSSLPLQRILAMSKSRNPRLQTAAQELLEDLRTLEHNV
Description: as §1, §2, §3

HSF2BP mutant R200T = assay: ITC of BRCA2 F0 with HSF2BP R200T; type: binding, human; details: ITC control
Method: as §1, §3

ARM domain of HSF2BP [2] = molecular target: T2, ARM domain of HSF2BP; assay: 2D NMR 1H-15N HSQC of 15N-labeled F0 with ARM; type: binding; details: 15N-F0 100 μM, ARM 1:1, 950 MHz, 283 K, pH 7.0; region S2252-Q2342
Method: (§4) For NMR analysis, ^15N-labeled or ^15N- and ^13C-labeled BRCA2 fragments were produced in E. coli BL21 DE3 Star cells grown in M9 medium containing either 0.5 g/l ^15NH4Cl or 0.5 g/l ^15NH4Cl and 2 g/l ^13C-glucose, respectively. […]
(§5) The ^15N/^13C-labeled F0 fragment was analyzed by 3D heteronuclear NMR. in order to assign its Hn, N, Cα, Cβ, and Co chemical shifts, and identify its binding site to HSF2BP. Therefore, 3D NMR HNCA, CBCACONH, HNCACB, HNCANNH, HNCO, and HNCACO experiments were performed on a 700 MHz Bruker AVANCE NEO spectrometer equipped with a triple resonance cryogenic TCI probe at 283 K. The data were processed using Topspin 4.0 (Bruker) and analyzed using CCPNMR 2.4[49]. […] For binding studies, 2D NMR ^1H-^15N HSQC experiments were recorded on a 3-mm-diameter sample tube containing the ^15N-labeled F0 at 100 μM in the absence and presence of the ARM domain at 100 μM, on a 950 MHz Bruker Avance III spectrometer equipped with a triple resonance cryogenic TCI probe at 283 K.

[3] = NMR chemical shift secondary structure analysis of F0; type: physicochemical, human; details: 50 mM Hepes pH 7.0, 50 mM NaCl, 283 K, 700 MHz
Method: as §4, §5

GFP-HSF2BP = assay: Co-immunoprecipitation of Flag-BRCA2 variants/fragments with GFP-HSF2BP WT; type: cell-based, human; details: transient HEK293T, anti-GFP beads, immunoblot
Description: (§6) Expression constructs for producing point mutation and truncation variants of HS2BP and BRCA2 in human cells were engineered as described before[16] in the PiggyBac vectors by Gibson assembly. For transient expression into HEK293T cells plasmid DNA was transfected using calcium precipitation method or PEI transfection. For stable integration into HeLa cells, PiggyBac expression vectors were co-lipofected together with PiggyBac transposase plasmid (hyPBase[45]) with Lipofectamine 3000 (Thermo Fisher).
(§7) Cells were washed twice in ice-cold PBS and lysed in situ in NETT buffer (100 mM NaCl, 50 mM Tris pH 7.5, 5 mM EDTA pH 8.0, 0.5% Triton-X100) supplemented immediately before use with protease inhibitor cocktail (Roche) and 0.4 mg/ml Pefabloc (Roche) (NETT++); 450 µl NETT++ buffer was used per 145 mm dish ES cells, 1 ml for HeLa and HEK293T. After 5–10 min, cells were scraped off and collected in 1.5 ml microcentrifuge tubes; lysis was continued for additional 20–30 min on ice, then mixtures were centrifuged (15 min, 4 °C, 14,000 × g) and the supernatant (input) was added to washed anti-GFP beads (Chromotek). Beads and lysates were incubated 2–4 h at 4 °C while rotating, washed three times in NETT++ buffer and bound proteins were eluted by boiling in 2x Sample buffer. Immunoblotting was performed following standard procedures with the following antibodies: anti-GFP mAb (Roche, #11814460001), anti-GFP pAb (Abcam #ab290 and Invitrogen #A11122), anti-RAD51[46], anti-BRCA2 mAb Ab1 OP-95 (Millipore #OP95), anti-BRCA2 (Abcam #27976), anti-Flag (M2 antibody, Sigma, F3165 and F1804). For quantitative immunoblotting fluorescently labeled secondary antibodies were used: anti-mouse CF680 (Sigma #SAB460199), anti-rabbit CF770 (Sigma #SAB460215); membranes were scanned using Odyssey CLx imaging system (LI-COR).

[4] = system: H3 fragment (the ARM domain) of HSF2BP; assay: Co-immunoprecipitation of Flag-BRCA2 fragments with GFP-HSF2BP fragment H3; type: cell-based, human; details: Fig. 1c; HEK293T; comparison with F15 and F9; reviewer's reading of the figure
Description: as §6
as §7, with “Beads and lysates were incubated 2–4 h at 4 °C while rotating, washed three times in NETT++ buffer and bound proteins were eluted by boiling in 2x Sample buffer. Immunoblotting was performed following standard procedures with the following antibodies: anti-GFP mAb (Roche, #11814460001), anti-GFP pAb (Abcam #ab290 and Invitrogen #A11122), anti-RAD51[46], anti-BRCA2 mAb Ab1 OP-95 (Millipore #OP95), anti-BRCA2 (Abcam #27976), anti-Flag (M2 antibody, Sigma, F3165 and F1804).” left out

[5] = Stability / expression of recombinant GFP-HSF2BP variants; set-up: species or system human; details: peer review file; immunoblot, FACS
[6] = system: mitomycin C-induced repair foci; details: cited from earlier work
Description: Consistent with our in vitro study, we observed in mouse ES cells that deletion of exon 12, coding for motif 1, causes a severe decrease in the BRCA2-HSF2BP interaction, and deletion of exons 12 to 14, coding for motifs 1 and 2, completely abolishes this interaction (Fig. 5d, e). […] We further previously ...

B1: F0: Human BRCA2 fragment aa 2213 to aa 2342 including mutation C2332T, recombinant (protein)
chain: STYSKDSENYFETEAVEIAKAFMEDDELTDSKLPSHATHSLFTCPENEEMVLSNSRIGKRRGEPLILVGEPSIKRNLLNEFDRIIENQEKSLKASKSTPDGTIKDRRLFMHHVSLEPITTVPFRTTKERQ
modifications: left off: GB1, C-terminal, cleaved | His6, C-terminal, cleaved
notes: Human BRCA2 fragment aa 2213 to aa 2342 including mutation C2332T, recombinant
ΔG (HSF2BP FL; 293 K, pH 7.5, expt 1): -11.8 kcal/mol | −TΔS (HSF2BP FL; 293 K, pH 7.5, expt 1): -0.8 kcal/mol | ΔH (±error) (HSF2BP FL; 293 K, pH 7.5, expt 1, error in brackets): −11.0 (0.1) kcal/mol | −TΔS (HSF2BP FL; 293 K, pH 7.5, expt 2): -1.0 kcal/mol | ΔH (±error) (HSF2BP FL; 293 K, pH 7.5, expt 2, error in brackets): −10.9 (0.1) kcal/mol | stoichiometry (HSF2BP FL; BRCA2 peptide per HSF2BP): 0.5 | affinity ratio HSF2BP vs ARM (HSF2BP FL; HSF2BP binds tighter to F0 than does ARM): about 25 -fold | ΔG (ARM domain of HSF2BP [1]; pH 7.5, expt 1): -10 kcal/mol | −TΔS (ARM domain of HSF2BP [1]; pH 7.5, expt 1): -1.7 kcal/mol | ΔH (±error) (ARM domain of HSF2BP [1]; pH 7.5, expt 1, error in brackets): −8.3 (0.2) kcal/mol | ΔG (ARM domain of HSF2BP [1]; pH 7.5, expt 2): -10.1 kcal/mol | −TΔS (ARM domain of HSF2BP [1]; pH 7.5, expt 2): 1.8 kcal/mol | ΔH (±error) (ARM domain of HSF2BP [1]; pH 7.5, expt 2, error in brackets): −11.9 (0.2) kcal/mol | stoichiometry (ARM domain of HSF2BP [1]; one BRCA2 peptide binds to two ARM): 0.5 | binding (HSF2BP mutant R200T): does not bind | HSQC peak intensity ratio (with ARM / free) (ARM domain of HSF2BP [2]): lower than 0.4 | transient α-helix population, region N2291-S2303 [3]: about 25%

B2: F16: Flag-tagged BRCA2 fragment 2270-2333 (protein, UniProt P51587 2270-2333, looked up, fragment)
chain: GKRRGEPLILVGEPSIKRNLLNEFDRIIENQEKSLKASKSTPDGTIKDRRLFMHHVSLEPITCV
modifications: Flag tag
interaction with HSF2BP (co-precipitation) (GFP-HSF2BP): reduced efficiency | interaction with H3 (co-precipitation) [4]: same level of interaction

B3: L85R: GFP-HSF2BP point mutant (protein, UniProt O75031 1-334, looked up, variant L85R)
Heat shock factor 2-binding …: T1 sequence (O75031 1-334) with L85R
modifications: GFP fusion
notes: GFP-HSF2BP point mutant
stability of recombinant GFP-HSF2BP variant [5]: unstable

B4: R200T: HSF2BP mutant R200T (protein, UniProt O75031 1-334, looked up, variant R200T)
Heat shock factor 2-binding …: T1 sequence (O75031 1-334) with R200T
localization of GFP-tagged HSF2BP to mitomycin C-induced repair foci [6]: abolishes localization
